Experimental data published in paper PMC9113379 (Cell & Bioscience, 2022).

target: T1, SARS-CoV-2 S protein RBD domain (wild type) (SARS-CoV-2, UniProt P0DTC2); assay: ELISA; conditions: both partners purified

Row | Binder | binding result
1 | CB6 mAb (antibody, V domains shown) VH: EVQLVESGGGLVQPGGSLRLSCAASGFTVSSNYMSWVRQAPGKGLEWVSVIYSGGSTFYADSVKGRFTISRDNSMNTLFLQMNSLRAEDTAVYYCARVLPMYGDYLDYWGQGTLVTVSS VL: not shown | binds
2 | REGN10933 mAb (antibody, V domains shown) VH: QVQLVESGGGLVKPGGSLRLSCAASGFTFSDYYMSWIRQAPGKGLEWVSYITYSGSTIYYADSVKGRFTISRDNAKSSLYLQMNSLRAEDTAVYYCARDRGTTMVPFDYWGQGTLVTVSS VL: DIQMTQSPSSLSASVGDRVTITCQASQDITNYLNWYQQKPGKAPKLLIYAASNLETGVPSRFSGSGSGTDFTFTISGLQPEDIATYYCQQYDNLPLTFGGGTKVEIK | binds
3 | R3P2-B5 mAb (antibody, V domains shown) VH: QVQLVQSGGGLIQPGGSLRLSCAASGVTVSSNYMSWVRQAPGRGLEWVSLIYPGGSTYYADSVKGRFTISRDNSRNTLYLQMNSLRAEDTAVYYCARDLSEKGGMDVWGQGTLVTVSS VL: EIVMTQSPGTLSLSPGERVTLSCRTSQSVSRFFSWYQQKPGQAPRLLIHTASTRATDIPDRFSASGSGTDFTLTISRLEPEDSAMYYCQHYGASPYTFGQGTKVDIK | binds
4 | R3P2-G1 mAb (antibody, V domains shown) VH: QVQLVQSGGGLIQPGGSLRLSCAASGVTVSSNYMSWVRQAPGRGLEWVSLIYPGGSTYYADSVKGRFTISRDNSRNTLYLQMNSLRAEDTAVYYCARDLSEKGGMDVWGQGTTVTVSS VL: QAVLTQPPSVSVAPGKTARITCGGNHIGSKSVNWYQQKSGQAPVLVIYSDSDRPSGIPARFSGSNSGDTATLTISRVEAGDEADYYCQVWDNRSDHWVFGGGTQLTVL | binds

target: T1, SARS-CoV-2 S protein RBD domain (wild …); assay: SPR; conditions: both partners purified

Row | Binder | Kd [nM]
5 | R3P2-A2 mAb (antibody, V domains shown) VH: QVQLVQSGGGLIQPGGSLRLSCAASGVTVSSNYMSWVRQAPGRGLEWVSLIYPGGSTYYADSVKGRFTISRDNSRNTLYLQMNSLRAEDTAVYYCARDLSEKGGMDVWGQGTMVTVSS VL: EIVMTQSPSVLPLFPGESGSLSCRASQNVGDFLAWYQHKPGQAPKLLIYGATNRPTGIPDRFSGTGSGTDFTLTISRMEPEDFAVYFCQQYGTSPPITFGPGTKVDIK | 2.32
6 | R3P1-E4 mAb (antibody, V domains shown) VH: QVQLVQSGGGLIQPGGSLRLSCAASGVTVSSNYMSWVRQAPGRGLEWVSLIYPGGSTYYADSVKGRFTISRDNSRNTLYLQMNSLRAEDTAVYYCARDLSEKGGMDVWGQGTTVTVSS VL: DIVMTQSPSSLSASVGDRVTITCRASQGISSYLAWYQQKPGKAPKLLIYAASTLQSGVPSRFSGSGSGTDFTLTISSLQPEDFATYYCQQLNSYPRFGPGTKVEIK | 0.82
